Laboratory results taken from patent US20260232769A1 (WUXI BIOLOGICS IRELAND, published 2026).

Biological target: IL-2Rα/β/γc complex (high affinity receptor) on human activated CD8+ T cells (human) (UniProt P01589)
Test: cell-based or functional assay

Potency reduction, pSTAT5, human activated CD8+ T: 7.2 fold | pSTAT5 EC50, human activated CD8+ T: 0.12 nM
B1: W3XX115-BMK8 (Fc fusion, part only; not given: Fab heavy and light chains, part only)
chain: APTSSSTKKTQLQLEHLRLDLEMILNGINNYKNPKLTRMLTFKFYMPKKATELKHLQCLEEELKPLEEVLNLAQSKNFHLRPRDLISNINVIVLELKGSETTFMCEYADETATIVEFLNRWITFCKSIISTLTESKYGPPCPPCPAPEFLGGPSVFLFPPKPKDTLMISRTPEVTCVVVDVSQEDPEVQFNWYVDGVEVHNAKTKPREEQFNSTYRVVSVLTVLHQDWLNGKEYKCKVSNKGLPSSIEKTISKAKGQPREPQVYTLPPCQEEMTKNQVSLWCLVKGFYPSDIAVEWESNGQPENNYKTTPPVLDSDGSFFLYSRLTVDKSRWQEGNVFSCSVMHEALHNHYTQKSLSLSLG
